Reference: the supplement of paper PMC12764529
± gives the half width of the 95% confidence interval.

Key:
[1] = folding stability dG unfold from trypsin proteolysis; higher = more stable
In short: (§1)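 How resistant each design was to proteolysis was captured as K50, inferred by Bayesian fitting of sequencing counts. Unfolding free energy was then derived relative to a sequence-predicted unfolded-state K50 and a shared folded-state K50, per protease or combined. Digestion used trypsin and chymotrypsin at 11 threefold-diluted concentrations plus a no-protease condition, on mini-proteins under 80 residues without cysteine in a PA-tagged cDNA display construct. Designs were kept only when AlphaFold2 dimer inter-PAE was above 15.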

[2] = folding stability dG unfold from chymotrypsin proteolysis; higher = more stable
In short: as §1

[3] = folding stability dG unfold (combined trypsin and chymotrypsin); higher = more stable
In short: as §1

Row | Sequence | folding stability dG unfold [1] | folding stability dG unfold [2] | folding stability dG unfold [3]
1 | SAGGSAGGSAGPGLSITTTITTTTPAKLPNGTAPLRTTTTTIITELKPADPNNPVILANTSAGGSAGGSAGG [r11_236_JUSTAS] | 1.05 ± 0.053 kcal/mol | 0.278 ± 0.069 kcal/mol | 0.746 ± 0.048 kcal/mol
2 | SAGGSAGGSAGPKIKIKKFPDFLIAEIEFPDGKKATAIFDPKTGKIIVFVGDKPIEIDIGSAGGSAGGSAGG [r11_846_TrMRF] | 2.16 ± 0.059 kcal/mol | 3.49 ± 0.09 kcal/mol | 3.1 ± 0.07 kcal/mol
3 | SAGGSAGGSAGPKPLATITLPYPDNASVTITVTPNGVLIDPDPNITNPEVEKAVADALTDSAGGSAGGSAGG [r11_372_TrMRF] | 1.55 ± 0.11 kcal/mol | 1.07 ± 0.12 kcal/mol | 1.41 ± 0.099 kcal/mol
4 | SAGGSAGGSAGPLKIKKLELRKLPDGFVEMTAEFEGPENYTVRLIVRKDDPNKLVLEVFPSAGGSAGGSAGG [r11_618_TrROS_Hall] | 2.07 ± 0.095 kcal/mol | 2.98 ± 0.057 kcal/mol | 2.69 ± 0.16 kcal/mol
5 | SAGGSAGGSAGPLTLTATFLSDYNYAVTVTLTFEVDENGNLSVSGEVEIRPVPPLGPGNASAGGSAGGSAGG [r11_728_TrMRF] | 2.42 ± 0.1 kcal/mol | 4.05 ± 0.11 kcal/mol | 3.72 ± 0.15 kcal/mol
6 | SAGGSAGGSAGPMEVERETIMIPIDPDKGYYIMIDVWRYKNPGGPPFPAPSISIMDLDDLSAGGSAGGSAGG [r11_51_TrROS] | 1.78 ± 0.072 kcal/mol | 3.11 ± 0.045 kcal/mol | 2.68 ± 0.11 kcal/mol
7 | SAGGSAGGSAGPNIYVSIKWKHNNGPVTHQIPIPPNDPPEILDEMSKQPGFKVTDIEVMPSAGGSAGGSAGG [r11_692_TrROS] | -0.836 ± 0.35 kcal/mol | -0.0146 ± 0.3 kcal/mol | -0.213 ± 0.25 kcal/mol
8 | SAGGSAGGSAGPNNMYPYEITIEVRDDGKPVKIKIEMYMSPNGEPMPPEQIKNFAKELAKSAGGSAGGSAGG [r17_373_TrROS] | 0.382 ± 0.24 kcal/mol | 0.444 ± 0.17 kcal/mol | 0.398 ± 0.23 kcal/mol
9 | SAGGSAGGSAGPNWKKYTFTIFFPGYPFRVEIERPKDGPNAPLAIKIEDPNGKPMETFPISAGGSAGGSAGG [r11_223_TrROS] | 2.71 ± 0.11 kcal/mol | 2.61 ± 0.082 kcal/mol | 2.67 ± 0.12 kcal/mol
10 | SAGGSAGGSAGPPDQNFLIKIKWQENGKKREHTIPIPAENLDEVLDELSPWPGLEVEIIPSAGGSAGGSAGG [r17_50_TrROS] | -0.408 ± 0.085 kcal/mol | -0.295 ± 0.11 kcal/mol | -0.376 ± 0.19 kcal/mol
11 | SAGGSAGGSAGPPIMVMVHKHDKEDGKPKIDESIPIDIPPDQQDKLKEEANERGYHVHPFSAGGSAGGSAGG [r17_18_TrROS] | 0.207 ± 0.054 kcal/mol | 0.0379 ± 0.11 kcal/mol | 0.158 ± 0.091 kcal/mol
12 | SAGGSAGGSAGPPNKPVYVRVRIQMPNGKKKTFWFKDVEQIEKNLKEEFGIRDIEIEPIKSAGGSAGGSAGG [r17_508_TrROS] | 1.62 ± 0.028 kcal/mol | 1.71 ± 0.026 kcal/mol | 1.67 ± 0.046 kcal/mol
13 | SAGGSAGGSAGPTLTLELLFRNEDGSLYAVRVRYDLDTDKVEIEVRRLPPAEPVTVTVEDSAGGSAGGSAGG [r11_657_TrROS_Hall] | 2.8 ± 0.12 kcal/mol | 4.26 ± 0.052 kcal/mol | 3.7 ± 0.17 kcal/mol
14 | SAGGSAGGSAGPTVASVEVLEYDPETGYLTVRIYIPDNGEWVDVKAPVGTAEEIVKAAEKSAGGSAGGSAGG [r17_111_TrMRF] | 0.463 ± 0.077 kcal/mol | 1.49 ± 0.048 kcal/mol | 1.16 ± 0.14 kcal/mol
15 | SAGGSAGGSAGPVKLTLEVPEEEAEELAEALREAGYEVEIERDEETKRLRVTITVDPEALSAGGSAGGSAGG [r11_1043_TrROS_Hall] | 1.78 ± 0.095 kcal/mol | 2.2 ± 0.056 kcal/mol | 2.01 ± 0.12 kcal/mol
16 | SAGGSAGGSAGPVKTVEVEIPGMSEEELLALLPPGVKRVEIEREEVEPGRVRLRIKVYEESAGGSAGGSAGG [r11_1002_TrROS_Hall] | 0.307 ± 0.062 kcal/mol | 1.3 ± 0.051 kcal/mol | 0.977 ± 0.059 kcal/mol
17 | SAGGSAGGSAGPVTITIKVPKEDEEEIEALARELAAALPPPEGAKVTVERNEDGTITITLSAGGSAGGSAGG [r17_324_TrROS_Hall] | 1.56 ± 0.15 kcal/mol | 1.6 ± 0.06 kcal/mol | 1.62 ± 0.12 kcal/mol
18 | SAGGSAGGSAGPVVVEVDGKLVIFNPEDGTVTVFEFDKDGKLVEEKEFTVPPEVTLVEEDSAGGSAGGSAGG [r17_385_TrROS_Hall] | 1.42 ± 0.11 kcal/mol | 1.06 ± 0.039 kcal/mol | 1.27 ± 0.13 kcal/mol
19 | SAGGSAGGSAGRRLVLEFDDESLAVPAAEFLERVLGLELVSIERVPDGERERVLVVLDFPSAGGSAGGSAGG [r11_232_TrMRF] | 1.78 ± 0.036 kcal/mol | 2.45 ± 0.05 kcal/mol | 2.21 ± 0.09 kcal/mol
20 | SAGGSAGGSAGSEIAEAIKKALEEAGVKEVKIEKVGPEPNVFRITFENGETIEITLPEDLSAGGSAGGSAGG [r11_765_TrROS_Hall] | 2.28 ± 0.15 kcal/mol | 2.19 ± 0.037 kcal/mol | 2.21 ± 0.1 kcal/mol
21 | SAGGSAGGSAGSGTMFDFGSASVETLEEDPNGRVLVKVTLPDSEYLLEIVKGELVKIEPRSAGGSAGGSAGG [r17_396_JUSTAS] | -0.274 ± 0.28 kcal/mol | 0.858 ± 0.059 kcal/mol | 0.569 ± 0.12 kcal/mol
22 | SAGGSAGGSAGSIGFDSLEEAEKAIEEARRNNVPLTIELRLPDGSTLRIPVDLEIPEDDPSAGGSAGGSAGG [r17_462_TrMRF] | 1.7 ± 0.056 kcal/mol | 1.19 ± 0.037 kcal/mol | 1.46 ± 0.12 kcal/mol
23 | SAGGSAGGSAGSLELEFEFPKDTPLDKIIEELKKLIPEKDPKIEILKVEEKEGGLWIKARVSSAGGSAGGSA [r18_360_TrMRF] | 3.55 ± 0.085 kcal/mol | 3.11 ± 0.042 kcal/mol | 3.26 ± 0.05 kcal/mol
24 | SAGGSAGGSAGSLLTETSESVINDTKITHVLEIDPSSGALRLILETKHPDPGIVTVELLPSAGGSAGGSAGG [r17_242_JUSTAS] | 0.943 ± 0.023 kcal/mol | 0.857 ± 0.061 kcal/mol | 0.885 ± 0.072 kcal/mol
25 | SAGGSAGGSAGSMEPVKTEELESGEVRTVSLLPDGTIKEELIKIEGEGETVETKVVPLEESAGGSAGGSAGG [r11_699_JUSTAS] | 0.745 ± 0.065 kcal/mol | 1.68 ± 0.1 kcal/mol | 1.48 ± 0.2 kcal/mol
26 | SAGGSAGGSAGSMIEEAVEAAKASGDPDVTVDLETPEGRVTVTVTVDPATGTVTVTTSPESAGGSAGGSAGG [r17_475_JUSTAS] | 1.21 ± 0.033 kcal/mol | 2.21 ± 0.077 kcal/mol | 1.86 ± 0.091 kcal/mol
